Test results from doi:10.1101/2021.02.02.429416.

Legend:
[1] = molecular target: Aflibercept; experiment: ELISA
[2] = molecular target: Aflibercept; experiment: BLI

EC50 [1]	Kd [2]	Substance
1.63 nM	–	Human VEGF-A121 (ligand)
1.69 nM	0.00269 nM	Human VEGF-A165 (ligand)
